Patent publication US20060257397A1 (CRUCELL HOLLAND B V, published 2006)
Substitutions are numbered along the chain they refer to.

Experiments:
human CD1b = target: T1, human CD1b (human, UniProt P29016 18-333); test: flow cytometry on C1R-CD1b transfectant
T1 construct: whole, on cells; also called C1R-CD1b; CR1-CD1b
Description: (§1) The human anti-CD1a IgG1 antibodies were validated for their ability to bind to CD1a transfected cell lines essentially as described for scFvs (see Example 3). The purified anti-CD1a antibodies were diluted to various concentrations (depicted in the figures) and detected with mouse anti-human IgGκ labeled with FITC or FITC-labeled streptavidin in the case of biotinylated human anti-CD1a antibodies. In addition to the cell lines C1R-CD1a and C1R mock transfected described in Example 3, the cell lines C1R-CD1b , C1R-CD1c , C1R-CD1d and B16-CD1a and B16 mock transfected were tested. Each staining was repeated three times and compared to the negative control irrelevant isotype control antibody called CR2027 using the Kolmogorov-Simov test. To calculate K-S statistics, an overlay of histograms of isotype control antibody and anti-CD1a antibody was made. The log shift between the peaks of the histograms was determined and used to calculate the D-value. The greater the log shift of the anti-CD1a antibody response peak from the isotype control antibody response peak, the larger the D-value.
(§2) No specific staining of any of the six human anti-CD1a monoclonal antibodies was detected on the C1R-CD1b or C1R-CD1d transfectants (see FIG. 4). Slight, but significant, staining (p<0.05) was detected for the two antibodies CR2114 and CR2117 on C1R-CD1c transfectants (see FIG. 4). […] In addition, staining was also carried out on freshly prepared mouse thymocytes, which express murine […] at low levels.

human CD1d = target: T2, human CD1d (human, UniProt P15813 20-335); test: flow cytometry on C1R-CD1d transfectant
T2 construct: whole, on cells; also called C1R-CD1d; CR1-CD1d
T2 sequence (looked up): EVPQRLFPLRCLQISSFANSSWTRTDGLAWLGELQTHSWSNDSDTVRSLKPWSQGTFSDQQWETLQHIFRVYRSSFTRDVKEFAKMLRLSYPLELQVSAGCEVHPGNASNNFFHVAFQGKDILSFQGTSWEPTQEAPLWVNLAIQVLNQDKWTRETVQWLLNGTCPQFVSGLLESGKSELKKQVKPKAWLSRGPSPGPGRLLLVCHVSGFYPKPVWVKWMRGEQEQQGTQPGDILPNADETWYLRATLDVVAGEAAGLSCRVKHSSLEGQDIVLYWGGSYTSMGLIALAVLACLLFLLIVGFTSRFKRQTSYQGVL
Description: as §1, §2

murine CD1d [1] = target: T3, murine CD1d (mouse, UniProt P11609 22-336); test: flow cytometry on freshly prepared mouse thymocytes
T3 construct: whole, on cells; also called mouse thymocytes
T3 sequence (looked up): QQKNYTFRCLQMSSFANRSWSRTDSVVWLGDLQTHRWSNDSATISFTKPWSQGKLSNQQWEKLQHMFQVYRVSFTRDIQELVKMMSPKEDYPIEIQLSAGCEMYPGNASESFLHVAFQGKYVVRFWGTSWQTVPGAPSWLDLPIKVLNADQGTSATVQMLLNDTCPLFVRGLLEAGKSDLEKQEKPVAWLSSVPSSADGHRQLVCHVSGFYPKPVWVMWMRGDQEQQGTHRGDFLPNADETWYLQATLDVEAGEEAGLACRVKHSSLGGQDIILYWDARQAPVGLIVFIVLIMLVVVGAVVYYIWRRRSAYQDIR

murine CD1a = target: T4, murine CD1a (mouse); test: flow cytometry on mouse thymocytes, K-S statistics against isotype control
T4 construct: whole, on cells; no such UniProt entry is known to me (mice are known to carry only CD1d genes); also called mouse thymocytes
Description: as §1, §2

murine CD1d [2] = target: T3, murine CD1d; test: as above
Description: as §1, §2

human CD1a [3] = target: T5, human CD1a (human, UniProt P06126 17-327); test: competition flow cytometry on B16-CD1a cells: unlabeled antibody for 30 min, then biotin-labeled CR2113 at 2.5 µg/ml, FITC-streptavidin
T5 construct: whole, on cells; also called C1R-CD1a; CR1-CD1a
Description: (§3) B16 mouse melanoma cells expressing human CD1a were stained with unlabeled CR2113, CR2114, CR2117, CR2118 or the negative control CR2027 at different concentrations (0.1, 0.3, 1, 3, 10, 30, 50, 100 μg/ml) for 30 minutes and then stained with one of the above antibodies labeled with biotin as described above for five minutes at a concentration of 2.5 μg/ml. Detection was by FITC-labeled streptavidin incubated for 20 minutes. Furthermore, staining was performed as described above (see Example 3). Each staining was done three successive times and the D-value calculated with K-S statistics (see above). The staining of unlabeled control antibody CR2027 is shown by the dotted line staining using the test antibody is depicted with a solid line. CR2113 was able to compete with itself in a dose dependent manner, however none of the other antibodies could compete with biotinylated CR2113 for binding (see FIG. 6A). […] In contrast, unlabeled CR2113 was able to compete for binding of CR2114 (see FIG. 6B), CR2117 (see FIG. 6C) and CR2118 (see FIG. 6D) to B16-CD1a transfectants in a concentration dependent manner. Neither CR2117 nor CR2118 was able to compete with CR2114 for binding to CD1a. This could be due to sub-optimal affinity.

human CD1a [4] = target: T5, human CD1a; test: competition flow cytometry on B16-CD1a cells: unlabeled antibody for 30 min, then biotin-labeled CR2114 at 2.5 µg/ml, FITC-streptavidin
Description: as §3

human CD1a [5] = target: T5, human CD1a; test: competition flow cytometry on B16-CD1a cells: unlabeled antibody for 30 min, then biotin-labeled CR2118 at 2.5 µg/ml, FITC-streptavidin
Description: as §3

human CD1a [6] = target: T5, human CD1a; test: flow cytometry on B16-CD1a transfectants, biotinylated antibody detected with FITC-labeled streptavidin; D-value versus isotype control CR2027
Description: as §1
(§4) Binding curves were generated for the antibodies CR2113, CR2114, CR2117 and CR2118 by measuring binding on B16-CD1a transfected cells with FACS as above using the concentrations of antibody ranging from 0.01 to 10 μg/ml. […]

human CD1c = target: T6, human CD1c (human, UniProt P29017 18-333); test: flow cytometry on C1R-CD1c transfectant
T6 construct: whole, on cells; also called C1R-CD1c; CR1-CD1c
T6 sequence (looked up): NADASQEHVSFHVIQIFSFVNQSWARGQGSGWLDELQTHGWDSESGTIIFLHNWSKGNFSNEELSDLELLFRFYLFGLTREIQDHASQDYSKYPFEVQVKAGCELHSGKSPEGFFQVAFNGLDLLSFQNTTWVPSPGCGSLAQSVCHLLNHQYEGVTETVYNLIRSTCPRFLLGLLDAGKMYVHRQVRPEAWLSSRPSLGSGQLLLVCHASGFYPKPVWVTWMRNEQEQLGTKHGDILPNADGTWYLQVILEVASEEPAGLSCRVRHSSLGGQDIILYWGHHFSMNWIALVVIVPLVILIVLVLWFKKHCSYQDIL
Description: as §1
No specific staining of any of the six human anti-CD1a monoclonal antibodies was detected on the C1R-CD1b or C1R-CD1d transfectants (see FIG. 4). Slight, but significant, staining (p<0.05) was detected for the two antibodies CR2114 and CR2117 on C1R-CD1c transfectants (see FIG. 4). […]

human CD1a [7] = target: T5, human CD1a; test: flow cytometry on B16-CD1a transfectants, unlabeled antibody detected with FITC-labeled mouse anti-human IgG kappa; D-value versus isotype control CR2027
Description: as §1, §4

T1 sequence (P29016 18-333): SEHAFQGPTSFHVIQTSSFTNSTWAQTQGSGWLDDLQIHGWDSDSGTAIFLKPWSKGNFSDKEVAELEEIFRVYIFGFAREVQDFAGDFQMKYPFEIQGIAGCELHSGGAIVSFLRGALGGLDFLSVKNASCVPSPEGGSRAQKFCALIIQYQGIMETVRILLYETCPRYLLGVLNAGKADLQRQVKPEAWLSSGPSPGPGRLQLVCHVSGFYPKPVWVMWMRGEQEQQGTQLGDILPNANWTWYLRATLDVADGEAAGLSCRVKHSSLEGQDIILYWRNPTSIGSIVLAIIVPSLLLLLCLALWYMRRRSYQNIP
T5 sequence (P06126 17-327): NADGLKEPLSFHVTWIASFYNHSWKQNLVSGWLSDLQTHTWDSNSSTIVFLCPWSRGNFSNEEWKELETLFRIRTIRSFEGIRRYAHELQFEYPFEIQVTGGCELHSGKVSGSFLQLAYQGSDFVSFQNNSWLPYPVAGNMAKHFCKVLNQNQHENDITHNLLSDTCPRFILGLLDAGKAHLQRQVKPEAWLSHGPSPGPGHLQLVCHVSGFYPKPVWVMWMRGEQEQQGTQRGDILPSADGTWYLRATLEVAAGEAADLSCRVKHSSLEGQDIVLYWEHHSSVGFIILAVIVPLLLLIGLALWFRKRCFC

B1: human anti-human CD1a monoclonal antibody CR2113 (antibody, human IgG1, kappa, V domains shown)
VH: QVQLQESGAGLLKPSETLSLTCAVYGGSFSGYYWSWIRQPPGKGLEWIGYIYYSGSTNYNPSLKSRVTISVDTSKNQFSLKLSSVTAADTAVYYCAKAPYMMYFDSWGQGTLVTVSS
VL: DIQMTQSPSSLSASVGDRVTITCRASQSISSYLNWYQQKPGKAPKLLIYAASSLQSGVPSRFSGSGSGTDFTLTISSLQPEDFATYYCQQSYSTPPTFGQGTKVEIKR
notes: Fully human IgG1 kappa made from scFv SC02-113, expressed in 293T cells; Used unlabeled, biotinylated or Alexa488-labeled depending on the assay; also called 02-113
B1: no binding (human CD1b); no binding (human CD1d); no binding (murine CD1d [1]). The D-value (murine CD1a) was 0, the D-value (murine CD1d [2]) was 0 and the “IC50 (read off the curve)” value (human CD1a [3]) was ~3 µg/mL. The “IC50 (read off the curve)” value (human CD1a [4]) was ~0.5 µg/mL, the “IC50 (read off the curve)” value (human CD1a [5]) was ~0.6 µg/mL and the “EC50 (read off the curve)” value (human CD1a [6]) was ~0.1 microgr/ml.

B2: human anti-human CD1a monoclonal antibody CR2117 (antibody, human IgG1, kappa, V domains shown)
VH: EVQLVESGGGLVHPGGSLRLSCAGSGFTFSSYAMHWVRQAPGKGLEWVSAIGTGGGTYYADSVKGRFTISRDNAKNSLYLQMNSLRAEDTAVYYCARSTPWFSFDYWGQGTLVTVSS
VL: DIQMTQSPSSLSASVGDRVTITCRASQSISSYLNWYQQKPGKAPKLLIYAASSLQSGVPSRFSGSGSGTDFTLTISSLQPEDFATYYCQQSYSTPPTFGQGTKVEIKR
notes: Fully human IgG1 kappa made from scFv SC02-117; unlabeled or biotinylated; also called 02-117
B2: no binding (human CD1b); binds (human CD1c); no binding (human CD1d). The binding result (murine CD1d [1]) was “no binding”, the D-value (murine CD1a) was 0 and the D-value (murine CD1d [2]) was 0. The “EC50 (read off the curve)” value (human CD1a [6]) was ~2 microgr/ml.

B3: human anti-human CD1a monoclonal antibody CR2118 (antibody, human IgG1, kappa, V domains shown)
VH: B2 VH with G52S, T99A, P100W, F102L, Y106S
VL: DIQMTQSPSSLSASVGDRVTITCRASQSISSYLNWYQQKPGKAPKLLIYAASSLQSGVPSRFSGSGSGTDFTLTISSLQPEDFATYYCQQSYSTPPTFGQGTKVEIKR
notes: Fully human IgG1 kappa made from scFv SC02-118; unlabeled or biotinylated; also called 02-118
B3: no binding (human CD1b); no binding (human CD1d); no binding (murine CD1d [1]). For the same binder, the D-value (murine CD1a) was 0, the D-value (murine CD1d [2]) was 0 and the binding result (human CD1a [7]) was “binds”.

B4: human anti-human CD1a monoclonal antibody CR2114 (antibody, human IgG1, kappa, V domains shown)
VH: EVQLVESGGGLVQPGGSLRLSCAASGFTFSSYSMNWVRQAPGKGLEWVSYISSSSSTIYYADSVKGRFTISRDNAKNSLYLQMNSLRDEDTAVYYCAKETWWQSFDYWGQGTLVTVSS
VL: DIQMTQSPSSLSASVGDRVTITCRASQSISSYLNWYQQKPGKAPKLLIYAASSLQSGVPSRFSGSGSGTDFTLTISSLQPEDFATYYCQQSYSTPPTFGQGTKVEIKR
notes: Fully human IgG1 kappa made from scFv SC02-114; unlabeled or biotinylated; also called 02-114
B4: no binding (human CD1b); binds (human CD1c); no binding (human CD1d). For the same binder, the binding result (murine CD1d [1]) was “no binding”, the D-value (murine CD1a) was 0 and the D-value (murine CD1d [2]) was 0.

B5: human anti-human CD1a monoclonal antibody CR2115 (antibody, human IgG1, V domains shown)
VH: QVQLVQSGAEAKKPGASVKVSCKASGYTFTGYYMHWVRQAPGQGLEWMGWISAYNGNTNYAQKLQGRVTMTTDTSTSTAYMELRSLRSDDTAVYYCARSQMPSYFDYWGQGTLVTVSS
VL: SSELTQDPAVSVALGQTVRITCQGDSLRSYYASWYQQKPGQAPVLVIYGKNNRPSGIPDRFSGSSSGNTASLTITGAQAEDEADYYCNSRDSSGNHVVFGGGTKLTVLG
notes: Fully human IgG1 lambda made from scFv SC02-115; also called 02-115
B5: no binding (human CD1b); no binding (human CD1d); no binding (murine CD1d [1]). The D-value (murine CD1d [2]) was 0.
